Measurements published in publication PMC8244255 (Current Research in Structural Biology, 2021).

What was measured:
Full-length human CaM = Full-length human CaM (Homo sapiens, UniProt P0DP23); assay: ITC of CK peptides with full-length CaM; format: binding
[1] = target: C-lobe fragment (CaM 76–146) (Homo sapiens, UniProt P0DP23); assay: ITC of CK peptides with C-lobe fragment of CaM; format: binding; details: C-lobe compared to N-lobe
[2] = target: Calmodulin N-terminal globular domain (N-lobe fragment, sequence 1-75) (human, UniProt P0DP23 1-75); assay: ITC
[3] = target: Calmodulin C-terminal globular domain (C-lobe fragment, sequence 76-146) (human, UniProt P0DP23 76-146); assay: ITC

stoichiometry n (Full-length human CaM; presence of Ca2+)	affinity for C-lobe relative to N-lobe (times higher) [1]	binding to CaM (Full-length human CaM; at any solution conditions)	stoichiometry N [2] [peptide per fragment]	stoichiometry N [3] [peptide per fragment]	Molecule
		No binding could be detected			AcNH-LKRLRLQKRGTGGVDTAA-CONH2 [peptide covering CKB residues 312–329]
			1	1	Ac-HLSKHPKFEEILTRLRLQ-NH2 [CKM peptide (human muscle-type creatine kinase residues 301-318)]

Continued, molecule first:

Molecule	stoichiometry n (Full-length human CaM; presence of Ca2+)	affinity for C-lobe relative to N-lobe (times higher) [1]	binding to CaM (Full-length human CaM; at any solution conditions)	stoichiometry N [2] [peptide per fragment]	stoichiometry N [3] [peptide per fragment]
Ac-NLGKHEKFSEVLKRLRLQ-NH2 [CKB peptide]	2	ca. 10 times			
Ac-NLGKHEKFSEVLKRLRLQ-NH2 [CKB peptide (human brain-type creatine kinase residues 301-318)]				1	1
